According to paper PMC4713133 (Molecular Biology of the Cell, 2016):

Legend:
Sec8-Myc = Sec8-Myc (rat, UniProt Q62824 1-975); assay: pull-down
Sec5-Myc = Sec5-Myc (rat, UniProt O54921 1-924); assay: pull-down
Chain of Sec5-Myc (O54921 whole entry): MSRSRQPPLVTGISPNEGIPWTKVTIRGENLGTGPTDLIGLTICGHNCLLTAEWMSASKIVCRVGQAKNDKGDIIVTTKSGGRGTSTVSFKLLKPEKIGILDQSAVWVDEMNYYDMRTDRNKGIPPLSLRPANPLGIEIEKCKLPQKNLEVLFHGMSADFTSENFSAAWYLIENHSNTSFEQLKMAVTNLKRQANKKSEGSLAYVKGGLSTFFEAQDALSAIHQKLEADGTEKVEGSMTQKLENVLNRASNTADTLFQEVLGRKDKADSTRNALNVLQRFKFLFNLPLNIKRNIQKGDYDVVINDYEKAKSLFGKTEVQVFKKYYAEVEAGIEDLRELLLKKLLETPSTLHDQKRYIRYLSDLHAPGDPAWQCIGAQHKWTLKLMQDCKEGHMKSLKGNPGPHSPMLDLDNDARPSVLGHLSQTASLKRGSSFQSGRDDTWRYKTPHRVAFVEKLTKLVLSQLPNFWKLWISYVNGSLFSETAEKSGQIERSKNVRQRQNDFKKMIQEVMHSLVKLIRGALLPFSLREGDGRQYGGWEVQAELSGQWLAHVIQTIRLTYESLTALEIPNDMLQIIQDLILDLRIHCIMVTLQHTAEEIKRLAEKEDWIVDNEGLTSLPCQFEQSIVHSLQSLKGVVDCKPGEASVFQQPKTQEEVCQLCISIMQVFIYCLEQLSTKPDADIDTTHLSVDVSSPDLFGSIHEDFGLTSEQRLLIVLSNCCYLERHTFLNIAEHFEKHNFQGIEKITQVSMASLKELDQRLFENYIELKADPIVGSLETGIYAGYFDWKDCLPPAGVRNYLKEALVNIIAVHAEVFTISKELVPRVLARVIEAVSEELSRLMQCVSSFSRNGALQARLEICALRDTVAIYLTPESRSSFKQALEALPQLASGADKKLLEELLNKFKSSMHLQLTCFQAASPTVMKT

Chain of Sec8-Myc (Q62824 whole entry): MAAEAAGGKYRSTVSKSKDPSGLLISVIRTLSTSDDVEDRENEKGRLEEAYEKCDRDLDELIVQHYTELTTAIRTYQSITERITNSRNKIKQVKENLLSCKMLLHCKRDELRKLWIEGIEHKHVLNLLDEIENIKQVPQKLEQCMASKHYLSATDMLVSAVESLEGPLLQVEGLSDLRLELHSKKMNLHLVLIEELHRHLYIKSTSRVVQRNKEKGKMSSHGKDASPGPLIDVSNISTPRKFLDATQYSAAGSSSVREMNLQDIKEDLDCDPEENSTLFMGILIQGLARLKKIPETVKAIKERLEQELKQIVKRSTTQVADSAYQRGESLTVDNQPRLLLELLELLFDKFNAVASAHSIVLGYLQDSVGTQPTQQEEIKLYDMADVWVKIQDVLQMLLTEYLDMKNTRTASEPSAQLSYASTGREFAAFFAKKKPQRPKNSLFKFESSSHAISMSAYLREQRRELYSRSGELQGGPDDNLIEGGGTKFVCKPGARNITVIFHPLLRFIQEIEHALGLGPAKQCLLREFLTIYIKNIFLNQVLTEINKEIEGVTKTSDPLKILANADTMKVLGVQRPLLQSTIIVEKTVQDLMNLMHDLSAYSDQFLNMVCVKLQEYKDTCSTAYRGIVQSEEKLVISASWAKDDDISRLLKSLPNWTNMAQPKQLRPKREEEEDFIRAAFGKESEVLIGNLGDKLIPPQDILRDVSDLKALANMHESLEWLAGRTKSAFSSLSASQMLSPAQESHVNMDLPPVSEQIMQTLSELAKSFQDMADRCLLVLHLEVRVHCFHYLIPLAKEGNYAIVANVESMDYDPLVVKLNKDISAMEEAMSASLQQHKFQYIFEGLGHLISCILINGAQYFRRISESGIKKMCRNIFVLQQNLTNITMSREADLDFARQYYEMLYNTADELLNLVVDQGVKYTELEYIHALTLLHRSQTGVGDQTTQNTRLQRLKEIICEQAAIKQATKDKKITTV

B1: Arl13b-GST (natural protein)
chain: not shown
binding result (Sec8-Myc): binds | binding result (Sec5-Myc): binds
